Key:
[1] = biological target: GST-Ragulator pre-incubated with GFP-tagged active-loaded Rag heterodimers (UniProt Q6IAA8); assay: single-molecule imaging on beads
[2] = biological target: stable Ragulator-VhH + GFP-Rag complexes (UniProt Q9Y2Q5); assay: single-molecule imaging on beads
UniProt Q9Y2Q5, sequence (Q9Y2Q5 whole entry, looked up, one chain of several): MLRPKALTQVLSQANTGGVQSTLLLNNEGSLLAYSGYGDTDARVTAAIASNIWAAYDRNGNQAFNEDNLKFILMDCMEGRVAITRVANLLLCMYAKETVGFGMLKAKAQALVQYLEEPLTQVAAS

Raptor-Halo^TMR (co-purified with mTOR and mLST8) (from UniProt Q8N122;P42345;Q9BVC4) (complex)
residence time (photobleaching-corrected half-life, t1/2) [1]: 3.1 s
residence time (photobleaching-corrected half-life, t1/2) [2]: 13.2 s
